Results on 3 substances are retold here after PMC6250738.

Common to all, as to assay: SEC; Superdex 200 10/30 GL, PBS, native conditions; MW from elution volume against protein standards
Experiment [1] addresses NanoLuc luciferase-TriggerTrimer-galectin-3 trimeric nanoassembly (deep sea shrimp | not stated | human).
Experiment [2] has as its target chondroitinase ABC I-TriggerTrimer-galectin-3 trimeric nanoassembly.
Experiment [3] deals with superfolder green fluorescent protein-TriggerTrimer-galectin-3 trimeric nanoassembly.

A word on the stoichiometry N: it is the number of molecules, sites or subunits per partner or assembly. Take “NanoLuc luciferase-TriggerTrimer-galectin-3 trimeric nanoassembly”: in experiment [1], the stoichiometry N came out at 3.
Take “chondroitinase ABC I-TriggerTrimer-galectin-3 trimeric nanoassembly”: the stoichiometry N in experiment [2] was 3.
In turn, “superfolder green fluorescent protein-TriggerTrimer-galectin-3 trimeric nanoassembly” came in with a stoichiometry N in experiment [3] of 3.
